Assay results from US20260250421A1 (BIOCYTOGEN PHARMACEUTICALS BEIJING, published 2026).

T1: His-tagged human PTK7 protein (human, UniProt Q13308 31-704)
T1 construct: Bought protein; also called hPTK7-His; not shown: His tag
T1 sequence: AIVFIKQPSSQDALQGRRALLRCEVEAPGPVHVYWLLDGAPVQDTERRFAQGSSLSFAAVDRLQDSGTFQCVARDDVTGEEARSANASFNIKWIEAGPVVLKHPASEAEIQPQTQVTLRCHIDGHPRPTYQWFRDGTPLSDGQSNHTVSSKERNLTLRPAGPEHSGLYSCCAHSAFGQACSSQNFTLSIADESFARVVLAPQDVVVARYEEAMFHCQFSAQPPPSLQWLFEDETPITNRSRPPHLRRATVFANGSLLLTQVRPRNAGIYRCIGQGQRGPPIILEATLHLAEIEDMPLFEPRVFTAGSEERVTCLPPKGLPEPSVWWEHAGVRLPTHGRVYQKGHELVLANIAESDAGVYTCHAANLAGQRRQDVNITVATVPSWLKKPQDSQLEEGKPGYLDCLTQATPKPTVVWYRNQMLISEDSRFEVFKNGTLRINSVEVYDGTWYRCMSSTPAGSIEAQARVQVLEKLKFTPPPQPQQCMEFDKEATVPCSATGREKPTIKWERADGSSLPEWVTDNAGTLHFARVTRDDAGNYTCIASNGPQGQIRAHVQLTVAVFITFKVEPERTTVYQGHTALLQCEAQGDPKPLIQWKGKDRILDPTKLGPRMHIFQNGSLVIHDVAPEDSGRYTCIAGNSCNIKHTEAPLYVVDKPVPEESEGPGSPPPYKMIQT

T2: His-tagged cynomolgus monkey PTK7 protein (cynomolgus monkey, UniProt A0A2K5VNI5 39-712)
T2 construct: Bought protein; also called cPTK7-His; ACRO Biosystems Cat# PT7-C52H3; not shown: His tag
T2 sequence: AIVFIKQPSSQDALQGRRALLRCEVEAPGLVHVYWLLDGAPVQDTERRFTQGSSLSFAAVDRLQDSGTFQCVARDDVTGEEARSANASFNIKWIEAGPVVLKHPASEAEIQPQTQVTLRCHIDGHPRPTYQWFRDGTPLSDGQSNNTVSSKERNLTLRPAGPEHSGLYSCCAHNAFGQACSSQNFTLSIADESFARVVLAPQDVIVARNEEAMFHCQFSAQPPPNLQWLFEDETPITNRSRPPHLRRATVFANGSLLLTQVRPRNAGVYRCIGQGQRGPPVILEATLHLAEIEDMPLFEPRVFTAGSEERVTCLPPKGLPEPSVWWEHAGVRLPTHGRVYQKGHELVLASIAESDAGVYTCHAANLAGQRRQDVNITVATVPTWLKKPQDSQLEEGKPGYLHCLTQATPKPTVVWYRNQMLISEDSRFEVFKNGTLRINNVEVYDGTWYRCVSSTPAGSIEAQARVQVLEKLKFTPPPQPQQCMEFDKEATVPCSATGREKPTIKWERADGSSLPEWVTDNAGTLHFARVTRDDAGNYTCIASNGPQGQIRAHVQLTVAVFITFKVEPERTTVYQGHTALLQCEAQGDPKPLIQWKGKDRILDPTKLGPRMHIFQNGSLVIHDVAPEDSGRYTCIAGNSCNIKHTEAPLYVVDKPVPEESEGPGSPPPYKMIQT


Key:
[1] = molecular target: T1, His-tagged human PTK7 protein; assay: SPR Biacore 8K, Ab on Protein A chip
Experimental: (§1) Purified anti-PTK7 antibodies were diluted to 1 μg/mL and then injected into the Biacore™ 8K biosensor at 10 μL/min for about 50 seconds to achieve a desired protein density (e.g., about 50 response units (RU)). The His-tagged PTK7 protein at a concentration of 200 nM or 0 nM was then injected at 30 μL/min for 180 seconds. Dissociation was monitored for 400 seconds. The chip was regenerated after the last injection of each titration with glycine (pH 2.0, 30 μL/min for 30 seconds).

[2] = molecular target: T2, His-tagged cynomolgus monkey PTK7 …; assay: SPR Biacore 8K, Ab on Protein A chip
Experimental: as §1

[3] = molecular target: T1, His-tagged human PTK7 protein; assay: BLI Octet binning on hPTK7-His; competitor 1F2
Experimental: (§2) Relative positions of target protein epitope between a pair of purified anti-PTK7 antibodies were analyzed by Biolayer Interferometry (BLI) using ForteBio Octet system at 30° C. A total of […] purified antibodies were used: 1A7, 1A11, 1F2, 2A5, 2D11, 2F5, 3C4 and 3E6.
(§3) 1×HBS-EP+ buffer (10 mM 4-(2-hydroxyethyl)-1-piperazineethanesulfonic acid (HEPES), 150 mM NaCl, 3 mM ethylenediaminetetraacetic acid (EDTA) and 0.05% P20, pH7.4) diluted from HBS-EP+ buffer (10×) was used as the running buffer throughout the experiment. His-tagged human PTK7 protein was captured at a flow rate of 10 μL/min, and 200 nM of antibody (Analyte 1) was injected at a flow rate of 30 μL/min to bind the ligand. Another antibody (Analyte 2) was injected under the same conditions to determine whether the binding of different antibodies interfered with each other. The binding time was 300 s for each antibody.
(§4) The binding value of each antibody was obtained using Data Analysis HT 12.0. To quantify the interference of one antibody binding to another, a binding ratio was calculated to compare each pair of antibodies. The binding ratio is defined as the binding value of the second antibody (Analyte 2), divided by the binding value of the first antibody (Analyte 1). […] In general, antibody pairs that interfere with each other have the same or overlapping epitopes.

[4] = molecular target: T1, His-tagged human PTK7 protein; assay: BLI Octet binning on hPTK7-His; competitor 2F5
Experimental: as §2, §3, §4

Row | Binder | Kd [1] [nM] | koff [1] [s⁻¹] | kon [1] [M⁻¹ s⁻¹] | Kd [2] [nM] | koff [2] [s⁻¹] | kon [2] [M⁻¹ s⁻¹] | binding ratio [3] | binding ratio [4]
1 | 1F2 (antibody, V domains shown, also called anti-PTK7 antibody 1F2) VH: QVQLVQSGGGLVQPGGSLRLSCAASGFTFSRYEMNWVRQAPGKGLEWVSYINSIGSAINYADSVKGRFTISRDNAKNSLYLQMRSLRAEDTAVYYCVREDNWNPGYWGQGTLVTVSS VL: not shown | 69.8 | 0.012 | 172000 | 30.2 | 0.00949 | 314000 | 0.03 | 0.56
2 | 3C4 (antibody, V domains shown, also called anti-PTK7 antibody 3C4) VH: QVQLEQSRAEVKKPGESLRISCKGSGYSFTSYWISWVRQMPGKGLEWMGRIDPSDSYTNYNPSFQGHVTISADKSISTAYLQWSSLKASDTAMYYCARRDGSYFDFDYWGQGTLVTVSS VL: not shown | 25.4 | 0.00237 | 93200 | 23.2 | 0.00187 | 80600 | 0.9 | 0.86
3 | 1A11 (antibody, V domains shown, also called anti-PTK7 antibody 1A11) VH: QVQLVQSGPGLVKPSETLSLTCTVSGGSINSYYWNWIRQPPGKGLEWIGYIYYSGSTNYNPSLKSRVTISVDTSKNQFSLKLSSVTAADTAVYYCARDPHDYIRGHFDLWGRGTLFTVSS VL: not shown | 41 | 0.00318 | 77600 | 18.4 | 0.00131 | 71200 | 0.86 | 0.67
4 | 1A7 (antibody, human IgG1, V domains shown, also called anti-PTK7 antibody 1A7) VH: QVQLVESGGGVVQPGRSLRLSCAASGFTFSNYGMHWVRQAPGKGLEWVAVIYYDGSNKFYADSVKGRFTISRDNSKNTLYLQMSSLRAEDTAVYYCARDVAPPGSRAEYFHHWGQGTLVTVSS VL: not shown | 40.9 | 0.00425 | 104000 | 17.9 | 0.000733 | 41100 | 0.84 | 0.07

Further lines, results first:

Row | Kd [1] [nM] | koff [1] [s⁻¹] | kon [1] [M⁻¹ s⁻¹] | Kd [2] [nM] | koff [2] [s⁻¹] | kon [2] [M⁻¹ s⁻¹] | binding ratio [3] | binding ratio [4] | Binder
5 | 3.44 | 0.000454 | 132000 | 3.95 | 0.000481 | 122000 | 0.74 | 0.71 | 3E6 (antibody, V domains shown, also called anti-PTK7 antibody 3E6) VH: QVQLVESGAEVKKPGESLRISCRGSGYSFTSYWISWVRQMPGKGLEWMGRIDPSDSYTKYSPSFQGHVTISADKSISTAYLQWSSLKASDTAMYYCARRDGDYFDFDYWGQGTLVTVSS VL: not shown
6 | 25.9 | 0.00281 | 108000 | 10.8 | 0.000439 | 40700 | 0.78 | -0.02 | 2A5 (antibody, V domains shown, also called anti-PTK7 antibody 2A5) VH: QVQLVQSGGGVVQPGRSLRLSCAASGFTFSNYGMHWVRQAPGKGLEWVAVIWYDGRNKYYADSVKGRFTISRDNSKNTLYLQMNSLRAEDTAVYYCARDVAPAGSRAEYFQNWGQGTLVTVSS VL: not shown
7 | 109 | 0.00388 | 35600 | 35.2 | 0.00146 | 41600 | 0.85 | 0.08 | 2F5 (antibody, V domains shown, also called anti-PTK7 antibody 2F5) VH: QVQLVESGGGVVQPGRSLRLSCVASGFTFSNYGMHWVRQAPGKGLEWVAIIYYDGSNKYYADSVKGRFTISRDNSKNTLYLQMNSLRAEDTAVYYCARDVAAAGSRAEYLHHWGQGTLVTVSS VL: not shown
8 | 8.11 | 0.000249 | 30600 | 3.08 | 0.000177 | 57400 | 0.93 | 0.14 | 2D11 (antibody, V domains shown, also called anti-PTK7 antibody 2D11) VH: QVQLVESGGGVVQPGRSLRLSCAASGFTFSSYGMHWVRQAPGKGLEWVAVIFYDGSNKYYADSVKGRFTISRDNSKNTLYLQMNSLRAEDTSVYYCARDVAAPGSRAEYFQNWGQGTLVTVSS VL: not shown
